Source: patent US20260092179A1, “GENETICALLY MODIFIED HOST CELLS PRODUCING VIOLACEIN, ANALOGUES, AND DERIVATIVES THEREOF” (OCTARINE BIO APS, priority 2022, published 2026)
Values belong to the molecule of their own block, whether it stands above or below them.

Assays:
[1] = In vitro glycosylation of proviolacein by purified UGT enzymes (% conversion); assay type: biochemical; settings: 350 μM proviolacein, 24 h incubation at 30° c.
Experimental: (§1) Glycosyltransferase (UGT) enzymes were produced and purified as follows. 5 mL of 2× concentrated LB medium+appropriate antibiotic (50 μg/mL) was inoculated with E. coli XJb (DE3) strains expressing a plasmid of interest and incubated overnight at 30° C. with shaking. The following day, 50 ml TB medium+antibiotic in 250 ml baffled flasks was inoculated with 0.5 mL overnight cell culture and incubated for 3.5 hrs at 30° C. The cell cultures were then induced with 3 mM arabinose, 0.1 mM IPTG and Incubated for 24 h at 25° C., with shaking. The following day, the cells were collected by centrifugation at 6500×g for 10 mins at 4° C. Cells were resuspended in 5 mL ice-cold protein extraction buffer (50 mM Tris-HCl pH7.4+1 mM phenylmethanesulfonyl fluoride+1 cOmplete™, mini, EDTA-free Protease Inhibitor Cocktail tablet (Roche). The resuspended material was transferred to five 1.5 mL eppendorf tubes and kept at −80° C. for at least 15 mins. The tubes were then thawed at room temperature, as the tubes were thawing the following reagents were added; 2.6 mM MgCl2, 1 mM CaCl2, 300 U/mL DNase solution (DENARASE®, C-lecta) and 0.2 mg/mL lysozyme (Sigma) dissolved in MilliQwater. Tubes were gently inverted to mix then were incubated for 10-15 mins at 37° C. […] of 4× Binding buffer was then added to the tubes (to final concentration of 50 mM Tris-HCl pH7.4, 10 mM imidazole, 500 mM NaCl and the pH adjusted to 7.4 with HCl). The mix was centrifuged at 10000×g for 30 mins at 4° C., the supernatant transferred to a fresh eppendorf tubes and centrifuged again to remove any remaining cellular debris at 10000×g for 30 minutes at 4° C. While the enzyme prep was centrifuging, HisPur 0.2 ml spin column (Thermo Scientific) are prepared as instructed by manufacturer. HisPur column was washed with MilliQ water and equilibrated with two resin-bed volumes of 1×his-binding buffer two times. HisPur column was centrifuged at 700×g for 2 minutes to remove buffer. 600 μL of collected supernatant from the centrifuged enzyme preparation was transferred to the HisPur column and then incubated at 4° C. with gentle shaking by inversion for 30 minutes. After 30 minutes, the unbound protein was removed by centrifugation 700×g for 2 min. The remaining 600 μL of collected supernatant from the centrifuged enzyme preparation was loaded to the HisPur column and incubated again at 4° C. with shaking. Unspecific binding of other proteins was removed by washing twice with 1× binding buffer (50 mM Tris-HCl, 0.5M NaCl, 10 mM Imidazole, pH 7.4). Enzyme was resuspended in 200 μl elution buffer for 2 minutes before elution by centrifugation (700×g for 2 minutes at 4° C.). Enzymes were used immediately in in vitro enzyme assays or stored at −20° C. in 50% glycerol until needed.
(§2) For in vitro studies of glycosyl transferase performance in glycosylating violacein and violacein derivatives, purified glycosyl transferases were prepared as described in Example 4 and in vitro enzyme assays run as described below in Table 19.
(§3) The reaction mixture was scaled up or down as required. The reaction mixture was incubated without shaking at 30° C. for 24 hours. Extraction and analysis were performed as described in Examples 3 and 5. To confirm the identity of the produced glycosides LC-MS/QTOF was used as described above to confirm the expected mass and fragmentation pattern of each detected molecule. Quantification of violacein glycoside or other violacein derivative glycoside production was done by comparing the peak area of the substrate and the produced glycoside with authentic analytical standards (where available), where a standard was unavailable, quantification was achieved by comparing with an authentic analytical standard of the substrate. % Conversion of a substrate to a glycoside by specific Glycosyl transferases was calculated by measuring the decrease in substrate and increase in product after 24 h incubation. […]

[2] = In vitro glycosylation of violacein by purified UGT enzymes (% conversion); assay type: biochemical; settings: for Product % production: Mono-glucoside / Product % production: Tetra-glucoside / Product % production: Total conversion / Product % production: Tri-glucoside / Product % production: Di-glucoside / Product % production: Penta-glucoside: 350 μM violacein, 24 h incubation at 30° c.
Experimental: as §1, §2, §3

Product % production: Mono-glucoside [1]: 2.12% | Product % production: Tetra-glucoside [1]: 3.34% | Product % production: Tri-glucoside [1]: 1.23% | Product % production: Mono-glucoside [2]: 9.02% | Product % production: Tetra-glucoside [2]: 11.12% | Product % production: Tri-glucoside [2]: 10.80%
B1: Bs109_1: glycosyltransferase from Bacillus subtilis (SEQ ID NO: 68) (protein, listed as Bacillus subtilis)
chain: MKKYHISMINIPAYGHVNPTLALVEKLCEKGHRVTYATTEEFAPAVQQAGGEALLYHTSLNIDPKQIREMMEKNDAPLSLLKESLSILPQLEELYKDDQPDLIIYDFVALAGKLFAEKLNVPVIKLCSSYAQNESFQLGNEDMLKKIREAEAEFKAYLEQEKLPAVSFEQLAVPEALNIVFMPKSFQIQHETFDDRFCFVGPSLGERKEKESLLIEKDDRPLMLISLGTAFNAWPEFYKMCIKAFRDSSWQVIMSVGKAIDPESLEDIPANFTIRQSVPQLEVLEKADLFISHGGMNSTMEAMNAGVPLVVIPQMYEQELTANRVDELGLGVYLPKEEVTVSSLQEAVQAVSSDQELLSRVKNMQKDVKEAGGAERAAAEIEAFMKKSAVPQ
Product % production: Total conversion [1]: 6.69% | Product % production: Total conversion [2]: 30.93%

Product % production: Mono-glucoside [1]: 8.12% | Product % production: Mono-glucoside [2]: 25.65%
B2: Cp73B: glycosyltransferase from Carica papaya (SEQ ID NO: 72) (protein, listed as Carica papaya)
chain: MGSEVLHHDYSQLNIFFFPFMAHGHMIPTLDMAKLFATHGAKTSIITTPLNLPFFSKSIERFSKQTGLEIGVKLLNFPSVEVGLPSGCENADSLPAGEPLIVNKFFAAAGMLKDPLERLLQEFKPDCLIADMFFPWTTDAAAKFDIPRLVFHGTSFFALSASECIRLYTPFNNVSSDSEPFLVPTLPDEIRLTRNQLADFAMKEGDENGIHRLIKEAKESELKSYGVVVNSFYELEPAYADHYRNFLKRKAWHIGPVSLCNKTVEDKAERGKRASIDEDECLKWLNSKAPNSVIYICFGSMANFNSAQLMEIATALDASGQEFIWVVRREKNENNQEDWLPEGFEQRTEGKGLIIRGWAPQVLILEHEAVGGFVTHCGWNSTLEGVTAGMPMVTWPVSAEQFYNEKLVTEVLKIGLSVGVKKWVRSEGDFVSREKVEQAVREIMVGSEAVERRMRAKAMADMARAAVEKGGSSYNDLNALLREVSLMRRQQSQNQ
Product % production: Total conversion [1]: 8.12% | Product % production: Total conversion [2]: 25.65%

Product % production: Di-glucoside [1]: 1.45% | Product % production: Mono-glucoside [1]: 2.45% | Product % production: Penta-glucoside [1]: 2.11% | Product % production: Tetra-glucoside [1]: 1.98% | Product % production: Tri-glucoside [1]: 2.12% | Product % production: Di-glucoside [2]: 10.57% | Product % production: Mono-glucoside [2]: 11.05% | Product % production: Penta-glucoside [2]: 11.46% | Product % production: Tetra-glucoside [2]: 14.10% | Product % production: Tri-glucoside [2]: 15.29%
B3: Bs109A1: glycosyltransferase from Bacillus subtilis (SEQ ID NO: 70) (protein, listed as Bacillus subtilis)
chain: MKKHHISMINIPAYGHVNPTLALVEKLCEKGHRVTYATTEEFAPAVQQAGGEALIYHTSLNIDPKQIREMMEKNDATLSLLKESLSILPQLEELYKDDQPDLIIYDFVALAGKLFADKLNVPVIKLCSSYAQNESFQLGNEDMLKKIKEAEAEFKAYLEQEQLPAVSFEQLAVPEALNIVFMPKSFQIQHETFDDRFCFVGPSLGKRTEQESLLIDKGDRPLMLISLGTAFNAWPEFYKMCIDAFRDSSWQVIMSVGKSIDPESLDDTPANFTIRQSVPQLEVLAKADLFISHGGMNSTMEAMNAGVPLVVIPQMYEQELTAKRVDELGLGVYLQREEVTVSKLQEAVQAVSGDQELLSRVKSMQKDVKEAGGAERAAAEIEAFMKKSAVPQ
Product % production: Total conversion [1]: 10.11% | Product % production: Total conversion [2]: 62.47%

Product % production: Di-glucoside [1]: 0.15% | Product % production: Mono-glucoside [1]: 0.12% | Product % production: Penta-glucoside [1]: 0.78% | Product % production: Tetra-glucoside [1]: 1.22% | Product % production: Tri-glucoside [1]: 1.13% | Product % production: Di-glucoside [2]: 8.95% | Product % production: Mono-glucoside [2]: 8.69% | Product % production: Penta-glucoside [2]: 10.98% | Product % production: Tetra-glucoside [2]: 10.31% | Product % production: Tri-glucoside [2]: 15.47% | reduction in violacein concentration compared to the no-enzyme control ([2]; 24 h incubation at 30° C., HPLC): 75%
B4: Pt73Y: glycosyltransferase enzyme from Populus trichocarpa (SEQ ID NO. 64, 66) (protein, listed as Populus trichocarpa)
chain: MGSLGHQLHIFFLPFFAHGHMIPSVDMAKLFASRGIKTTIITTPLNAPFFSKTIQKTKELGFDINILTIKFPAAEAGLPEGYENTDAFIFSENAREMTIKFIKATTFLQAPFEKVLQECHPDCIVADVFFPWATDAAAKFGIPRLVFHGTSNFALSASECVRLYEPHKKVSSDSEPFVVPDLPGDIKLTKKQLPDDVRENVENDFSKFLKASKEAELRSFGVVVNSFYELEPAYADYYKKVLGRRAWNVGPVSLCNRDTEDKAGRGKETSIDHHECLKWLDSKKPNSVVYICFGSTTNFSDSQLKEIAAGLEASGQQFIWVVRRNKKGQEDKEDWLPEGFEERMEGVGLIIRGWAPQVLILDHEAIGAFVTHCGWNSTLEGITAGKPMVTWPIFAEQFYNEKLVTDVLKTGVGVGVKEWFRVHGDHVKSEAVEKTITQIMVGEEAEEMRSRAKKLGETARKAVEEGGSSYSDFNALIEELRWRRP
Product % production: Total conversion [1]: 3.4% | Product % production: Total conversion [2]: 54.41%
